In article PMC9482650, “Quantitative fragmentomics allow affinity mapping of interactomes” (Nature Communications, 2022):
Each block holds one binder with its values, some of them ahead of it.

How the values were obtained:
Assay in all cases: holdup assay
Parameters in all cases: key: below the threshold = too weak to quantify, mostly under pKd 3.1 to 4
APBA3_1, O96018 = target: T1, APBA3_1, O96018
T1 sequence (O96018 389-490, limits assumed, looked up): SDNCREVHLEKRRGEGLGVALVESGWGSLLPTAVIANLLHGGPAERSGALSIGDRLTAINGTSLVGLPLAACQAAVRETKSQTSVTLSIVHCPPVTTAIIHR

ARHGEF12, Q9NZN5-2 = target: ARHGEF12, Q9NZN5-2
DLG2_3, Q15700 = target: DLG2_3, Q15700
DVL3, Q92997 = target: T2, DVL3, Q92997
T2 sequence (Q92997 244-331, limits assumed, looked up): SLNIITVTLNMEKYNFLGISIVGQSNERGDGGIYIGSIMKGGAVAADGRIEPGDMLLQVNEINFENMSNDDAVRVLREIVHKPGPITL

FRMPD1, Q5SYB0 = target: T3, FRMPD1, Q5SYB0
T3 sequence (Q5SYB0 52-145, limits assumed, looked up): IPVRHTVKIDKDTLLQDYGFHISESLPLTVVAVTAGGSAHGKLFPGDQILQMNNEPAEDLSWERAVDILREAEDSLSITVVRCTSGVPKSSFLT

FRMPD2_1, Q68DX3 = target: FRMPD2_1, Q68DX3
FRMPD2_2, Q68DX3 = target: FRMPD2_2, Q68DX3
FRMPD2_3, Q68DX3 = target: FRMPD2_3, Q68DX3
FRMPD4, Q14CM0 = target: FRMPD4, Q14CM0
GRASP, Q7Z6J2 = target: GRASP, Q7Z6J2
GRIP2_4, Q9C0E4 = target: GRIP2_4, Q9C0E4
HTRA4, P83105 = target: T4, HTRA4, P83105
T4 sequence (P83105 378-476, limits assumed, looked up): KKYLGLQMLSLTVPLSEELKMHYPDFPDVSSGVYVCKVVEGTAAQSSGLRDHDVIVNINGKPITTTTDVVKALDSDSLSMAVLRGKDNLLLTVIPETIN

Inadl_6, Q8NI35 = target: Inadl_6, Q8NI35
Inadl_8, Q8NI35 = target: Inadl_8, Q8NI35
LNX1_1, Q8TBB1 = target: LNX1_1, Q8TBB1
LNX1_2, Q8TBB1 = target: LNX1_2, Q8TBB1
MAGI2_3, Q86UL8 = target: MAGI2_3, Q86UL8
MAGI2_6, Q86UL8 = target: MAGI2_6, Q86UL8
NHERF4_4, Q86UT5 = target: NHERF4_4, Q86UT5
PDZD7_3, Q9H5P4 = target: T5, PDZD7_3, Q9H5P4
T5 sequence (Q9H5P4 857-944, limits assumed, looked up): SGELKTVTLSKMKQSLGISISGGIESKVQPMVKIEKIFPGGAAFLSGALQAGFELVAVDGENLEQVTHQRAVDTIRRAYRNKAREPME

PDZRN4_1, Q6ZMN7 = target: PDZRN4_1, Q6ZMN7
PTPN13_1, Q12923 = target: T6, PTPN13_1, Q12923
T6 sequence (Q12923 1088-1188, limits assumed, looked up): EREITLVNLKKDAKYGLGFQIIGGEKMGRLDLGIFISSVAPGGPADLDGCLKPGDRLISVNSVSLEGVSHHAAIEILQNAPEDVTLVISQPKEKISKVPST

RAPGEF6, Q8TEU7 = target: T7, RAPGEF6, Q8TEU7
T7 sequence (Q8TEU7 525-625, limits assumed, looked up): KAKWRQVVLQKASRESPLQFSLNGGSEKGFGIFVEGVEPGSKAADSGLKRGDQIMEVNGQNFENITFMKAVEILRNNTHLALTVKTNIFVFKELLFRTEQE

RHPN1, Q8TCX5 = target: T8, RHPN1, Q8TCX5
T8 sequence (Q8TCX5 508-602, limits assumed, looked up): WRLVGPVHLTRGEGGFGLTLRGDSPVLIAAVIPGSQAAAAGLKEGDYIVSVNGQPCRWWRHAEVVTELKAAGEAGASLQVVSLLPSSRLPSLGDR

SIPA1L2, Q9P2F8 = target: T9, SIPA1L2, Q9P2F8
T9 sequence (Q9P2F8 945-1036, limits assumed, looked up): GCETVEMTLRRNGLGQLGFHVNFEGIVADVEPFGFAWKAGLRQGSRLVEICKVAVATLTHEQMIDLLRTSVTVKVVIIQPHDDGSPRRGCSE

SNTG2, Q9NY99 = target: T10, SNTG2, Q9NY99
T10 sequence (Q9NY99 68-166, limits assumed, looked up): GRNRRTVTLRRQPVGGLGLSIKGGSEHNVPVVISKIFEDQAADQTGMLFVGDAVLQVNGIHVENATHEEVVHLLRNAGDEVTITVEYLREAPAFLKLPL

TIAM2, Q8IVF5 = target: T11, TIAM2, Q8IVF5
T11 sequence (Q8IVF5 885-986, limits assumed, looked up): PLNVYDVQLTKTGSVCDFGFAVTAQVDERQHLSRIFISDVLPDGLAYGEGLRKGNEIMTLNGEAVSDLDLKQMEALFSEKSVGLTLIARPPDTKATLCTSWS

[1] = plain residues with an end cap or a label only (N-terminal biotin on a linker: ado-ado)
[2] = plain residues with an end cap or a label only (N-terminal biotin on a linker: ahx)

ARHGEF12, Q9NZN5-2, sequence (Q9NZN5 other isoform, or with tags, fused parts or gaps): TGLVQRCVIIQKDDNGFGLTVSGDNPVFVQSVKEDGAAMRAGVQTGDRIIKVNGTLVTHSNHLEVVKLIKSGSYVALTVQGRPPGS
GRIP2_4, Q9C0E4, sequence (Q9C0E4 446-548): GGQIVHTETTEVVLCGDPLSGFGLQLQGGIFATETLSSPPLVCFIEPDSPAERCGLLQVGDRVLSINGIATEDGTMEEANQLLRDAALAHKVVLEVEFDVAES
LNX1_2, Q8TBB1, sequence (Q8TBB1 371-470): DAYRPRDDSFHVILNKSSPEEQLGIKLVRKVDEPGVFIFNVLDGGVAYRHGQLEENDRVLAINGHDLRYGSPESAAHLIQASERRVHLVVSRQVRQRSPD
FRMPD2_3, Q68DX3, sequence (Q68DX3 1073-1166): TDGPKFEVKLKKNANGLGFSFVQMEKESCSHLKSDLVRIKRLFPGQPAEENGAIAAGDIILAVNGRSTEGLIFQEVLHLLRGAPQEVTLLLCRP
PDZRN4_1, Q6ZMN7, sequence (Q6ZMN7 213-318): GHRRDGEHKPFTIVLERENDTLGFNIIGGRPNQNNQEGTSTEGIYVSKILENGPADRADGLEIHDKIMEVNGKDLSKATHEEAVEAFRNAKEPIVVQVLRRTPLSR
Inadl_6, Q8NI35, sequence (Q8NI35 1058-1167): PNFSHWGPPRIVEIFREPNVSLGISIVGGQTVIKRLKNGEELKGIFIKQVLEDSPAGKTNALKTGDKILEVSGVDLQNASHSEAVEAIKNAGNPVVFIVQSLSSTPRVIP
MAGI2_6, Q86UL8, sequence (Q86UL8 1141-1229): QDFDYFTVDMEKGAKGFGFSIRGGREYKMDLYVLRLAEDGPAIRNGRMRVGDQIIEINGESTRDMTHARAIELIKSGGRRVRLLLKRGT
FRMPD2_2, Q68DX3, sequence (Q68DX3 944-1038): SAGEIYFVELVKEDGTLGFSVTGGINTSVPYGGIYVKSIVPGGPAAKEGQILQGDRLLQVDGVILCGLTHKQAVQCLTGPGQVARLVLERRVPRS
MAGI2_3, Q86UL8, sequence (Q86UL8 600-682): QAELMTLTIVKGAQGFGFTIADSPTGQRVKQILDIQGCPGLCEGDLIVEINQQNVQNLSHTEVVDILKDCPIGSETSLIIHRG
FRMPD2_1, Q68DX3, sequence (Q68DX3 770-861): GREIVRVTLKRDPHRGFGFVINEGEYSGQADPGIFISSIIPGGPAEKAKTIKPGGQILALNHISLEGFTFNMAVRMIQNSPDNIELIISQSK
Inadl_8, Q8NI35, sequence (Q8NI35 1425-1530): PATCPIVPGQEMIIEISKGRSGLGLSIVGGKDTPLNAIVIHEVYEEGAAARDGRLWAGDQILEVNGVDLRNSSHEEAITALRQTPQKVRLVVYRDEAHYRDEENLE
NHERF4_4, Q86UT5, sequence (Q86UT5 464-550): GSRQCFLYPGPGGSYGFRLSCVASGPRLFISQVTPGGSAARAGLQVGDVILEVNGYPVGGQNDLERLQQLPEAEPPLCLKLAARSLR
LNX1_1, Q8TBB1, sequence (Q8TBB1 261-371): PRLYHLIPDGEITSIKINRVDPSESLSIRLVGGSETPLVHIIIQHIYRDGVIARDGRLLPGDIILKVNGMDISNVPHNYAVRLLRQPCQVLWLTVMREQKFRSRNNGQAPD
GRASP, Q7Z6J2, sequence (Q7Z6J2 96-193): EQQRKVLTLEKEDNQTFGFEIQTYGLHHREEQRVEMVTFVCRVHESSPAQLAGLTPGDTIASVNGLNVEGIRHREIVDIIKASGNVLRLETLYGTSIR
FRMPD4, Q14CM0, sequence (Q14CM0 67-160): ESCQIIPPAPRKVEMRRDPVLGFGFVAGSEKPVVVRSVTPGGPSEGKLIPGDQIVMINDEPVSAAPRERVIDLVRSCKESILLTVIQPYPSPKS

Binder: TESNLQTSSC [CGN, Q9P2M7]
pKd (APBA3_1, O96018; [2]): below the threshold
pKd (ARHGEF12, Q9NZN5-2; [2]): 3.71
pKd (DLG2_3, Q15700; [2]): below the threshold
pKd (DVL3, Q92997; [2]): below the threshold
pKd (FRMPD1, Q5SYB0; [2]): below the threshold
pKd (FRMPD2_1, Q68DX3; [2]): below the threshold
pKd (FRMPD2_2, Q68DX3; [2]): below the threshold
pKd (FRMPD2_3, Q68DX3; [2]): below the threshold
pKd (FRMPD4, Q14CM0; [2]): below the threshold
pKd (GRASP, Q7Z6J2; [2]): 3.95
pKd (GRIP2_4, Q9C0E4; [2]): below the threshold
pKd (HTRA4, P83105; [2]): below the threshold
pKd (Inadl_6, Q8NI35; [2]): below the threshold
pKd (Inadl_8, Q8NI35; [2]): 4.18
pKd (LNX1_1, Q8TBB1; [2]): 3.47
pKd (LNX1_2, Q8TBB1; [2]): below the threshold
pKd (MAGI2_3, Q86UL8; [2]): below the threshold
pKd (MAGI2_6, Q86UL8; [2]): below the threshold
pKd (NHERF4_4, Q86UT5; [2]): below the threshold
pKd (PDZD7_3, Q9H5P4; [2]): below the threshold
pKd (PDZRN4_1, Q6ZMN7; [2]): below the threshold
pKd (PTPN13_1, Q12923; [2]): below the threshold
pKd (RAPGEF6, Q8TEU7; [2]): below the threshold
pKd (RHPN1, Q8TCX5; [2]): 4.44
pKd (SIPA1L2, Q9P2F8; [2]): below the threshold
pKd (SNTG2, Q9NY99; [2]): below the threshold
pKd (TIAM2, Q8IVF5; [2]): below the threshold

Binder: RSSGGDDFWF [KCNV1, Q6PIU1]
pKd (APBA3_1, O96018; [1]): below the threshold
pKd (ARHGEF12, Q9NZN5-2; [1]): below the threshold
pKd (DLG2_3, Q15700; [1]): 3.6
pKd (DVL3, Q92997; [1]): 3.64
pKd (FRMPD1, Q5SYB0; [1]): below the threshold
pKd (FRMPD2_1, Q68DX3; [1]): below the threshold
pKd (FRMPD2_2, Q68DX3; [1]): below the threshold
pKd (FRMPD2_3, Q68DX3; [1]): below the threshold
pKd (FRMPD4, Q14CM0; [1]): 4.67
pKd (GRASP, Q7Z6J2; [1]): below the threshold
pKd (GRIP2_4, Q9C0E4; [1]): below the threshold
pKd (HTRA4, P83105; [1]): below the threshold
pKd (Inadl_6, Q8NI35; [1]): below the threshold
pKd (Inadl_8, Q8NI35; [1]): below the threshold
pKd (LNX1_1, Q8TBB1; [1]): below the threshold
pKd (LNX1_2, Q8TBB1; [1]): below the threshold
pKd (MAGI2_3, Q86UL8; [1]): below the threshold
pKd (MAGI2_6, Q86UL8; [1]): below the threshold
pKd (NHERF4_4, Q86UT5; [1]): 4.43
pKd (PDZD7_3, Q9H5P4; [1]): 3.92
pKd (PDZRN4_1, Q6ZMN7; [1]): below the threshold
pKd (PTPN13_1, Q12923; [1]): below the threshold
pKd (RAPGEF6, Q8TEU7; [1]): below the threshold
pKd (RHPN1, Q8TCX5; [1]): below the threshold
pKd (SIPA1L2, Q9P2F8; [1]): below the threshold
pKd (SNTG2, Q9NY99; [1]): below the threshold
pKd (TIAM2, Q8IVF5; [1]): 4.47

Binder: GTGYDRKDYV [CLDN3, O15551]
pKd (APBA3_1, O96018; [1]): below the threshold
pKd (ARHGEF12, Q9NZN5-2; [1]): below the threshold
pKd (DLG2_3, Q15700; [1]): below the threshold
pKd (DVL3, Q92997; [1]): 3.72
pKd (FRMPD1, Q5SYB0; [1]): below the threshold
pKd (FRMPD2_1, Q68DX3; [1]): below the threshold
pKd (FRMPD2_2, Q68DX3; [1]): below the threshold
pKd (FRMPD2_3, Q68DX3; [1]): below the threshold
pKd (FRMPD4, Q14CM0; [1]): 3.56
pKd (GRASP, Q7Z6J2; [1]): below the threshold
pKd (GRIP2_4, Q9C0E4; [1]): 3.53
pKd (HTRA4, P83105; [1]): below the threshold
pKd (Inadl_6, Q8NI35; [1]): below the threshold
pKd (Inadl_8, Q8NI35; [1]): 4.13
pKd (LNX1_1, Q8TBB1; [1]): below the threshold
pKd (LNX1_2, Q8TBB1; [1]): below the threshold
pKd (MAGI2_3, Q86UL8; [1]): 3.48
pKd (MAGI2_6, Q86UL8; [1]): 3.52
pKd (NHERF4_4, Q86UT5; [1]): below the threshold
pKd (PDZD7_3, Q9H5P4; [1]): 4
pKd (PDZRN4_1, Q6ZMN7; [1]): below the threshold
pKd (PTPN13_1, Q12923; [1]): below the threshold
pKd (RAPGEF6, Q8TEU7; [1]): below the threshold
pKd (RHPN1, Q8TCX5; [1]): below the threshold
pKd (SIPA1L2, Q9P2F8; [1]): below the threshold
pKd (SNTG2, Q9NY99; [1]): below the threshold
pKd (TIAM2, Q8IVF5; [1]): below the threshold

Next, values leading:

pKd (APBA3_1, O96018; [1]): below the threshold
pKd (ARHGEF12, Q9NZN5-2; [1]): 3.88
pKd (DLG2_3, Q15700; [1]): 3.54
pKd (DVL3, Q92997; [1]): below the threshold
pKd (FRMPD1, Q5SYB0; [1]): below the threshold
pKd (FRMPD2_1, Q68DX3; [1]): below the threshold
pKd (FRMPD2_2, Q68DX3; [1]): 4
pKd (FRMPD2_3, Q68DX3; [1]): below the threshold
pKd (FRMPD4, Q14CM0; [1]): 4.07
pKd (GRASP, Q7Z6J2; [1]): 4.66
pKd (GRIP2_4, Q9C0E4; [1]): below the threshold
pKd (HTRA4, P83105; [1]): 4.01
pKd (Inadl_6, Q8NI35; [1]): below the threshold
pKd (Inadl_8, Q8NI35; [1]): 4.2
pKd (LNX1_1, Q8TBB1; [1]): 3.73
pKd (LNX1_2, Q8TBB1; [1]): 3.47
pKd (MAGI2_3, Q86UL8; [1]): 4.46
pKd (MAGI2_6, Q86UL8; [1]): 4.09
pKd (NHERF4_4, Q86UT5; [1]): below the threshold
pKd (PDZD7_3, Q9H5P4; [1]): 4.83
pKd (PDZRN4_1, Q6ZMN7; [1]): below the threshold
pKd (PTPN13_1, Q12923; [1]): below the threshold
pKd (RAPGEF6, Q8TEU7; [1]): below the threshold
pKd (RHPN1, Q8TCX5; [1]): 4.35
pKd (SIPA1L2, Q9P2F8; [1]): below the threshold
pKd (SNTG2, Q9NY99; [1]): 4.19
pKd (TIAM2, Q8IVF5; [1]): below the threshold
Binder: RDPPAEWTRV [PTPN18, Q99952]

pKd (APBA3_1, O96018; [2]): below the threshold
pKd (ARHGEF12, Q9NZN5-2; [2]): 3.76
pKd (DLG2_3, Q15700; [2]): 3.66
pKd (DVL3, Q92997; [2]): below the threshold
pKd (FRMPD1, Q5SYB0; [2]): below the threshold
pKd (FRMPD2_1, Q68DX3; [2]): below the threshold
pKd (FRMPD2_2, Q68DX3; [2]): below the threshold
pKd (FRMPD2_3, Q68DX3; [2]): below the threshold
pKd (FRMPD4, Q14CM0; [2]): below the threshold
pKd (GRASP, Q7Z6J2; [2]): below the threshold
pKd (GRIP2_4, Q9C0E4; [2]): below the threshold
pKd (HTRA4, P83105; [2]): below the threshold
pKd (Inadl_6, Q8NI35; [2]): below the threshold
pKd (Inadl_8, Q8NI35; [2]): below the threshold
pKd (LNX1_1, Q8TBB1; [2]): below the threshold
pKd (LNX1_2, Q8TBB1; [2]): below the threshold
pKd (MAGI2_3, Q86UL8; [2]): below the threshold
pKd (MAGI2_6, Q86UL8; [2]): below the threshold
pKd (NHERF4_4, Q86UT5; [2]): below the threshold
pKd (PDZD7_3, Q9H5P4; [2]): 4.08
pKd (PDZRN4_1, Q6ZMN7; [2]): below the threshold
pKd (PTPN13_1, Q12923; [2]): below the threshold
pKd (RAPGEF6, Q8TEU7; [2]): below the threshold
pKd (RHPN1, Q8TCX5; [2]): 3.88
pKd (SIPA1L2, Q9P2F8; [2]): below the threshold
pKd (SNTG2, Q9NY99; [2]): below the threshold
pKd (TIAM2, Q8IVF5; [2]): below the threshold
Binder: APSRKLNTEI [TIAM1, Q13009]
